US20090068174A1, “THERAPEUTIC ALKALINE PROTEASE COMPOSITIONS AND USE IN FACILITATING THE TRANSPORT OF AGENTS ACROSS THE GASTROINTESTINAL MUCOSAL LINING” (Kansas University Medical Center Research Institute, Inc., priority 2007, published 2009)

Target: T1, mouse recombinant TNF-α (Mus musculus, UniProt P06804)
T1 sequence (P06804 80-235 limits assumed): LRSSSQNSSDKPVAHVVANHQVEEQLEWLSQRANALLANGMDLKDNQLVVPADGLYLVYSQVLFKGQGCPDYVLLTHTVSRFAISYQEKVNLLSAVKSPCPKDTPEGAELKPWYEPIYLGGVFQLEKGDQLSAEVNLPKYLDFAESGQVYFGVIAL
Assay: Bioactivity of protease-treated mouse TNF-α in the C2C12 cell bioassay (nitrite)
Type: cell-based
Details: C2C12 cells, NO (nitrite) production
Description: Effects of three purified A. oryzae proteases on the bioactivity of mouse TNF-α (A) protease powder prepared according to Example 1 (preparation); (B) alkaline protease; (C) 26 kDa protease; and (D) deuterolysin. 50 ng quantities of TNF-α were incubated at 37° C. for 24 hours with the indicated quantities of the protease powder prepared according to Example 1 or one of the three purified proteases. The reactions were then stopped by addition of FBS and samples were added to C2C12 cells that had been costimulated with mouse IFN-γ. Twenty-four hours later, nitrite was measured in culture fluids.
The protease powder prepared according to Example 1 inactivates mouse recombinant TNF-α. 50 ng of the cytokine was treated for 24 hours with either 0 (□); 5 (∘); or 10 ng ([…]) of either Pseudomonas elastase (A) or protease powder prepared according to Example 1 (B). Then the residual bioactivity of the cytokine was measured by its ability to co-activate mouse C2C12 myoblast cells in the presence of excess IFN-γ for the production of NO (nitrite).
The protease powder prepared according to Example 1 inactivates mouse recombinant TNF-α by limited proteolysis. […]

In the case of “Pseudomonas elastase: Pseudomonas protease used as a positive control [reference compound]”, the “Effect on bioactivity of mouse TNF-α” value is reported as “led to a loss of its biological activity”.
